From paper PMC5042579

Experiments:
GFP-EB1 (human) (human) = GFP-EB1 (human) (human) (UniProt Q15691); assay: TIRF microscopy of reconstituted dynamic microtubules
[1] = target: biotinylated EB1 (mouse end-binding protein 1) (mouse) (UniProt Q61166); assay: pull-down
[2] = target: microtubules of tubulin purified from bovine brain (bovine) (UniProt Q6B856); assay: co-sedimentation; conditions: scale: molecule per 100 dimers of polymerized tubulin

GFP-EB1 (human) (human), sequence (Q15691 whole entry): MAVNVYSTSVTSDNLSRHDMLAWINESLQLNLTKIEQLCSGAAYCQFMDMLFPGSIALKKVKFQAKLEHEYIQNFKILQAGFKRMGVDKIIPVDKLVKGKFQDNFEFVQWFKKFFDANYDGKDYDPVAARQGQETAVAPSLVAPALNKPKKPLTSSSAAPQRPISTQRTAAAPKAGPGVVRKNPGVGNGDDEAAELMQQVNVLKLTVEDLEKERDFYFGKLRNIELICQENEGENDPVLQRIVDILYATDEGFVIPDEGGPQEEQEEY
biotinylated EB1 (mouse end-binding protein 1) (mouse), sequence (Q61166 whole entry): as the sequence (Q15691 whole entry) above, with D123E, N147S, T154G, S157T, S165A, A170T, V179M, N201K counted along it

Row | Substance | GFP-EB1 comet intensity at microtubule ends with 75 nM tau protein (GFP-EB1 (human) (human)) [a.u.] | percent bound to EB1 compared with tau [1] [%] | tau molecules bound per 100 dimers of polymerized tubulin [2]
1 | P2R′-tau (tau fragment from P2 to R′) (from UniProt P10636-7 169-371) (domain or fragment) | 7 | – | –
2 | S262E-tau (phosphomimetic tau, serine 262 replaced by glutamate) (natural protein) | – | 50.1 | 1
